Test results: patent US7235648B1, “Yeast cells engineered to produce pheromone system protein surrogates, and uses therefor” (Cadus Technologies, Inc., priority 1993, dated 2007)

Tests used:
C5a receptor [1] = target: T1, C5a receptor (Homo sapiens, UniProt P21730); assay: Coupling of the C5a receptor to Gα chimeras in yeast; assay type: cell-based; parameters: expressed in transfected cells; host or cells: S. cerevisiae CY455 / CY878 carrying GPA1(41)-Gαi2, plasmid Cadus 1303; settings: GPA1 promoter; single copy integrated or low copy plasmid
T1 sequence (P21730 1-350): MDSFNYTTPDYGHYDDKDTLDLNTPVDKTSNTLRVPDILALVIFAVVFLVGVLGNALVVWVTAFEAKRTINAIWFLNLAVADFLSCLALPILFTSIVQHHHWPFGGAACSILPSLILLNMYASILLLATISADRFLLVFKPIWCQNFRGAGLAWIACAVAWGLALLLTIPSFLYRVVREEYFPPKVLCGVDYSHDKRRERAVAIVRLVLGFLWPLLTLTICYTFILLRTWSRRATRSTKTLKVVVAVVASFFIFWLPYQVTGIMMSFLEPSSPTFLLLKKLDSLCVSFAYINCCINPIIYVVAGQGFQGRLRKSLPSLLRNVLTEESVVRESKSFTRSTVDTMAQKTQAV
Experimental: Coupling by chimeric Gα_proteins._The Gα chimeras described above were tested for the ability to couple a mammalian G protein-coupled receptor to the pheromone response pathway in yeast. Results obtained using GPA141-Gαi2 to couple the human C5a receptor to the pheromone response pathway in autocrine strains of yeast are disclosed in Example 10 above.
With this phenomenon, there is an increase in growth on selective media for strains containing heterologous receptor in the absence of ligand. It is possible that some receptor antagonists would decrease LIRMA. It has been noted (Milano, et al. 1994) that specific antagonists reduce LIRMA of the β2 adrenergic receptor when that receptor is overexpressed in transgenic mice.

yeast Gβγ = target: T2, yeast Gβγ (Saccharomyces cerevisiae, UniProt P18851+P18852); assay: Coupling of Gα subunits and hybrids to yeast Gβγ: complementation of gpa1 growth arrest phenotype and fus1-HIS3 transcription; assay type: cell-based
T2 construct: Endogenous Gβγ subunits will be provided by the yeast STE4 and STE18 loci; endogenous in cells; host or cells: S. cerevisiae gpa1 tester strains
T2 sequence (P18851 1-423): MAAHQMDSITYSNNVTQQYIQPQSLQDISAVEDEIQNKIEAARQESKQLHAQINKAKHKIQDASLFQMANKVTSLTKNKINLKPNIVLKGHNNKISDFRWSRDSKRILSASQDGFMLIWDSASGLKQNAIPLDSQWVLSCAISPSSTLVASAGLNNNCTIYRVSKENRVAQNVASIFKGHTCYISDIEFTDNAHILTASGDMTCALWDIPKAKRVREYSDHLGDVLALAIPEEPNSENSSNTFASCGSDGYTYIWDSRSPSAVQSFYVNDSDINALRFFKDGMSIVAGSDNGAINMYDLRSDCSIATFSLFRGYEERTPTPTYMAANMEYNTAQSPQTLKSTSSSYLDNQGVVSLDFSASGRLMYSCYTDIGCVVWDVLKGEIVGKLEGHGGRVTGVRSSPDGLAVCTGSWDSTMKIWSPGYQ
T2 sequence (P18852 1-107 limits assumed): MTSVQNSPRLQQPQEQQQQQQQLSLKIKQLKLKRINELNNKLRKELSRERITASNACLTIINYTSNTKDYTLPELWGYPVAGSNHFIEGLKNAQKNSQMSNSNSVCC
From the text: We have tested the hypothesis that there are switch region determinants involved in the association of Gα with Gβγ by constructing a series of hybrid Gα proteins encoding portions of GPA1 and GαS in different combinations (FIG. 11).
Preferably, levels of Gα and Gβγ subunits are balanced. For example, heterologous Gα subunits may be expressed from a low copy (CEN ARS) vector containing the endogenous yeast GPA1 promotor and the GPA1 3′ untranslated region. The minimum criterion, applied to a heterologous Gα subunit with respect to its ability to couple functionally to the yeast pheromone pathway, is that it complement a gpa1 genotype when expressed from the GPA1 promoter on low copy plasmids or from an integrated, single copy gene. In the work described in this application, all heterologous Gα subunits have been assayed in two biological systems.

C5a receptor [2] = target: T1, C5a receptor; assay: Autocrine yeast expressing human C5a receptor and human C5a, growth read-out (fus1-HIS3); assay type: cell-based; parameters: expressed in transfected cells; host or cells: S. cerevisiae CY455 / CY878 carrying GPA1(41)-Gαi2, plasmid Cadus 1303
From the text: The strain used for this analysis, CY455 (MATαtbt1-1 ura3 leu2 trp1 his3 fus1-HIS3 can1 ste14::TRP1 ste3*1156), contains the following significant modifications. A pheromone inducible HIS3 gene, fus1-HIS3, is integrated at the FUS1 locus. A hybrid gene containing sequence encoding the first 41 amino acids of GPA1 (the yeast Gα subunit) fused to sequence encoding human Gαi2a (minus codons for the N-terminal 33 amino acids) replaces GPA1 at its normal chromosomal location. The yeast STE14 gene is disrupted to lower the basal level of signaling through the pheromone response pathway. The yeast a-factor receptor gene, STE3, is deleted. The last two modifications are probably not essential but appear to improve the signal-to-noise ratio. […]
Three colonies were picked from each transformation and grown overnight in media lacking leucine and uracil, at pH 6.8 with 25 mM PIPES (LEU^− URA^− pH6.8 with 25 mM PIPES). […] The optical density at 600 nm of a 1/20 dilution of these cultures was determined and the cultures were diluted into 25 mM PIPES pH 6.8 to a final OD600 of 0.2. […] For verification of pheromone pathway activation and quanti-fication of the stimulation, the activity of the fus1 promoter was determined colorometrically using a fus1-lacZ fusion in a similar set of strains. […]

C5a receptor [3] = target: T1, C5a receptor; parameters: host or cells: mammalian cells (not specified); settings: mammalian cells; Boulay et al. 1991; read-out: binding constant of C5a to its receptor; cited from earlier work
induced HL60 cells = target: T3, induced HL60 cells (Homo sapiens, UniProt P21730); assay: Competition with radiolabeled C5a for binding on induced HL60 cells; settings: C5a expressed in yeast
T3 construct: endogenous in cells; host or cells: induced HL60 cells
T3 sequence (P21730 1-350): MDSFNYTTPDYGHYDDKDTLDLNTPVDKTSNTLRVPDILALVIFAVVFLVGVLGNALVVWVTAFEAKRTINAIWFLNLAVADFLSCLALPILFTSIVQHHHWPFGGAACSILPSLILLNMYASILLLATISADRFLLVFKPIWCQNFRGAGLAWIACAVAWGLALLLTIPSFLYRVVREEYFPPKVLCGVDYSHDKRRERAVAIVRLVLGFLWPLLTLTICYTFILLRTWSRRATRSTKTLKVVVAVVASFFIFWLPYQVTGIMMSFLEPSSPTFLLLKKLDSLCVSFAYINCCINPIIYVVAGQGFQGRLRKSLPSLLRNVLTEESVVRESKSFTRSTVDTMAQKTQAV

B1: GPA141-Gαi2: first 41 amino acids of GPA1 fused to human Gαi2 (protein)
chain: MGCTVSTQTIGDESDPFLQNKRANDVIEQSLQLEKQRDKNEVKLLLLGAGESGKSTIVKQMKIIHE
In the case of B1, the “Result (coupling of the C5a receptor to Gα chimeras in yeast)” value (C5a receptor [1]) is reported as “GPA141-Gαi2single copy, Good signal to noise ratio:” and the “functional complementation of the growth arrest phenotype of gpa1 strains” value (yeast Gβγ) is reported as “functionally complement”.

B2: C5a: 74 amino acid polypeptide that derives from the fifth component of complement; anaphylatoxin (protein)
chain: TLQKKIEEIAAKYKHSVVKKCCYDGACVNNDETCEQRAARISLGPRCIKAFTECCVVASQLRANISHKDMQLGR
In the case of B2, the “growth on selective plates lacking histidine (pheromone pathway activation via C5a receptor)” value (C5a receptor [2]; CY455 R+L+ strain, pH 6.8, 1 mM aminotriazole) is given as “show growth on the selective plates”, the “aminotriazole concentration on which the R+L+ strain will grow” value (C5a receptor [2]; CY455 R+L+, highest concentration tested) is given as “up to 5 mM” and the Kd (C5a receptor [3]) is given as 1 nM. For the same molecule, the “competition for binding with radiolabeled C5a” value (induced HL60 cells) was “compete for binding”.
